From the Human Domainome abundance scans (Beltran et al. 2025) come the findings set out here.

B1: Protein C-ets-1, residues 55 to 135; numbered along this chain, P14921 (parent)
chain: GFTKEQQRLGIPKDPRQWTETHVRDWVMWAVNEFSLKGVDFQKFCMNGAALCALGKDCFLELAPDFVGDILWEHLEILQKE

± gives the uncertainty stated by the source.

The variants in the series derive from B1. Put plainly: abundance fitness (aPCA) (normalised: wild type 0, dead -1); higher = more abundant; growth selection in yeast, the domain comes from the species named. Particulars: Homo sapiens.
For GFTKEQQRLGIPKDPRQWTETHVRDWVMWAVNEFVLKGVDFQKFCMNGAALCALGKDCFLELAPDFVGDILWEHLEILQKE [S35V], the abundance fitness was -0.381 ± 0.035.

On to GFTKEQQRLGIPKDPRQWTETHVRDWVMWAVNEFILKGVDFQKFCMNGAALCALGKDCFLELAPDFVGDILWEHLEILQKE [S35I], for which the abundance fitness is -0.539 ± 0.15. The result for GFTKEQQRLQIPKDPRQWTETHVRDWVMWAVNEFSLKGVDFQKFCMNGAALCALGKDCFLELAPDFVGDILWEHLEILQKE [G10Q] reads 0.008 ± 0.051; that for GFTKEQQRLGIPKDPRQWTETHVRDWVMWAVNEFSLKGVDFQKFQMNGAALCALGKDCFLELAPDFVGDILWEHLEILQKE [C45Q], -0.002 ± 0.059. The result for GFTKEQQRLGIPKDPRQWTETHVRDWVMWAVNEFSLKGVDFQKFHMNGAALCALGKDCFLELAPDFVGDILWEHLEILQKE [C45H] reads 0.052 ± 0.08; that for GFTKEQQRLGIPKDPRQWTETHVRDWVMWAVNEFSLKGVDFQKFCMNGAALCALGKDCFLELLPDFVGDILWEHLEILQKE [A63L], -0.016 ± 0.032; that for GFTKEQQRLGIPKDPRQWTETHVRDWVMWAVNEFSLKGVDFQKFCMNGAALCALGKDCFLELTPDFVGDILWEHLEILQKE [A63T], -0.134 ± 0.1. For GFTKEQQRLGIPKDPRQWTETHVRDWVMWAVNEFSLKGVDFQKFCMNGAALCALGKDCFLELHPDFVGDILWEHLEILQKE [A63H], the abundance fitness was -0.096 ± 0.051. The result for GFTKEQQRLGIPKDPRQWTETHVRDWVMWAVNEFSLKGVDFQKFCMNGAALCALGKDCFLELAPDFVGDILWEHLEMLQKE [I77M] reads -0.009 ± 0.063. For GFTKEWQRLGIPKDPRQWTETHVRDWVMWAVNEFSLKGVDFQKFCMNGAALCALGKDCFLELAPDFVGDILWEHLEILQKE [Q6W] the value was -0.1 ± 0.044; for GFTKEQQRLGIPKDPRQWTCTHVRDWVMWAVNEFSLKGVDFQKFCMNGAALCALGKDCFLELAPDFVGDILWEHLEILQKE [E20C], -0.105 ± 0.042; for GFTKEQQRLGIPKDPRQWTETHVRDWVMWAVNEFSLKMVDFQKFCMNGAALCALGKDCFLELAPDFVGDILWEHLEILQKE [G38M], -0.273 ± 0.048. As to GFTKEQQRLGIPKDPRQWTETHVRDWVMWAVNEFSLKNVDFQKFCMNGAALCALGKDCFLELAPDFVGDILWEHLEILQKE [G38N], the abundance fitness was 0.052 ± 0.098.

GFTKEQQRLGIPKDPRQWTETHVRDWVMWAVNEFSLKGVDFQKFCMNGAALCALGKDCGLELAPDFVGDILWEHLEILQKE [F59G]: the abundance fitness is -0.95 ± 0.054.

For GFTKEQQRLGIPKDPRQWTETHVRDWVMWAVNEFSLKGVDFQKFCMNGAALCALGKDCILELAPDFVGDILWEHLEILQKE [F59I], the abundance fitness was -0.414 ± 0.064. For GFTKEQQRMGIPKDPRQWTETHVRDWVMWAVNEFSLKGVDFQKFCMNGAALCALGKDCFLELAPDFVGDILWEHLEILQKE [L9M] the value was -0.066 ± 0.057.

Regarding AFTKEQQRLGIPKDPRQWTETHVRDWVMWAVNEFSLKGVDFQKFCMNGAALCALGKDCFLELAPDFVGDILWEHLEILQKE [G1A], the abundance fitness was -0.091 ± 0.076. Regarding GFTKEQQRLGIPKDPRQWTETHVRDWVMWAVNEFSLKGVDFQKFCMNGAALCAAGKDCFLELAPDFVGDILWEHLEILQKE [L54A], the abundance fitness was -0.338 ± 0.032. With GFTKEQQRLGIPKDPRQWTETHVRDWVMWAVNEFSLKGVDFQKFCMNGAALCANGKDCFLELAPDFVGDILWEHLEILQKE [L54N], the abundance fitness was -0.302 ± 0.059. For GFTKEQQRLGIPKDPRQWTETHVRDWVMWAVNEFSLKGVVFQKFCMNGAALCALGKDCFLELAPDFVGDILWEHLEILQKE [D40V] the value was -0.209 ± 0.047; for GFTKEQQRLGIPKDPRQWTETHVRDWVMWAVNEFSLKGVMFQKFCMNGAALCALGKDCFLELAPDFVGDILWEHLEILQKE [D40M], -0.368 ± 0.037; for GFTKEQCRLGIPKDPRQWTETHVRDWVMWAVNEFSLKGVDFQKFCMNGAALCALGKDCFLELAPDFVGDILWEHLEILQKE [Q7C], -0.256 ± 0.06. The result for GFTKEQQRLGIPCDPRQWTETHVRDWVMWAVNEFSLKGVDFQKFCMNGAALCALGKDCFLELAPDFVGDILWEHLEILQKE [K13C] reads -0.04 ± 0.052; that for GFTKEQQRLGIPHDPRQWTETHVRDWVMWAVNEFSLKGVDFQKFCMNGAALCALGKDCFLELAPDFVGDILWEHLEILQKE [K13H], -0.04 ± 0.084; that for GFTKEQQRLGIPKDPRQWTETHVRDWVMWAVNEFSLKGVDFQKFCMNGAALCALGKDCFLEQAPDFVGDILWEHLEILQKE [L62Q], -0.3 ± 0.053. Consider GFTKEQQRLGIPKDPRQWTETHVRDWVMWAVNEFSLKGVDFQFFCMNGAALCALGKDCFLELAPDFVGDILWEHLEILQKE [K43F], for which the abundance fitness was -0.494 ± 0.058. The result for GFTKEQQRLGIPKDPRQWTETHVRDWVMWAVNEFSLKGVDFQKFCMNGAALCALGKDCFLELAPDFVGLILWEHLEILQKE [D69L] reads -0.057 ± 0.036; that for GFTKEQQRLGIPKDPRQWTETHVRDWVMWAVNEFSDKGVDFQKFCMNGAALCALGKDCFLELAPDFVGDILWEHLEILQKE [L36D], -0.763 ± 0.11. The result for GFTKEQQRLGIPKDPRQCTETHVRDWVMWAVNEFSLKGVDFQKFCMNGAALCALGKDCFLELAPDFVGDILWEHLEILQKE [W18C] reads -0.785 ± 0.13; that for GFEKEQQRLGIPKDPRQWTETHVRDWVMWAVNEFSLKGVDFQKFCMNGAALCALGKDCFLELAPDFVGDILWEHLEILQKE [T3E], 0.011 ± 0.081; that for GFVKEQQRLGIPKDPRQWTETHVRDWVMWAVNEFSLKGVDFQKFCMNGAALCALGKDCFLELAPDFVGDILWEHLEILQKE [T3V], -0.063 ± 0.041.

Regarding GFKKEQQRLGIPKDPRQWTETHVRDWVMWAVNEFSLKGVDFQKFCMNGAALCALGKDCFLELAPDFVGDILWEHLEILQKE [T3K], the abundance fitness stood at 0.025 ± 0.091. On to GFTKEQQRLGIPKDPRQWTETHVRDWVMWAVNEFSLKGVDYQKFCMNGAALCALGKDCFLELAPDFVGDILWEHLEILQKE [F41Y], for which the abundance fitness is 0.055 ± 0.055.

Take GFTKEQQRLGIPKDPRQWTETHVRDWVMWAVNEFSLKGVDFQKFCMNGAALCALGKDCFLELAPNFVGDILWEHLEILQKE [D65N]: the abundance fitness stood at 0.084 ± 0.074.
